Results taken from the supplement of paper PMC5998384.

Legend:
HeLa Kyoto [1] = experiment: solubility in G1/S (NP-40 vs SDS abundance) (log2 ratio); higher = more soluble; conditions: cell cycle stage: G1/S
HeLa Kyoto [2] = experiment: solubility change mitosis vs G1/S (difference of NP-40 vs SDS log2 ratios) (log2 ratio difference); higher = more soluble in mitosis
HeLa Kyoto [3] = experiment: thermal stability score vs G1/S (z-score of summed log2 fold changes over temperatures); higher = more thermally stable than in G1/S
[4] = cell cycle stage: early G1 (4.5 h after nocodazole release)
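Throughout, for solubility change mitosis vs G1/S (difference of NP-40 vs SDS log2 ratios): synchronized HeLa Kyoto cells (double thymidine block for G1/S, nocodazole release for mitosis), protein amounts in NP-40 versus SDS lysates quantified by mass spectrometry, three biological replicates.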
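Throughout, for solubility in G1/S (NP-40 vs SDS abundance): HeLa Kyoto cells arrested at G1/S by double thymidine block, proteins quantified by TMT10plex mass spectrometry in mild NP-40 versus SDS extracts, three biological replicates.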
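Throughout, for thermal stability score vs G1/S (z-score of summed log2 fold changes over temperatures): synchronized HeLa Kyoto cells, proteins quantified by TMT10plex mass spectrometry, three biological replicates, mitosis taken 0.5 h after nocodazole release, G1/S directly after double thymidine block.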

Row | Sequence | solubility in G1/S (log2) (HeLa Kyoto [1]) | solubility change mitosis (log2) (HeLa Kyoto [2]) | thermal stability score (HeLa Kyoto [3]; [4]) | thermal stability score (HeLa Kyoto [3]; cell cycle stage: mitosis)
1 | MKKSIGILSPGVALGMAGSAMSSKFFLVALAIFFSFAQVVIEANSWWSLGMNNPVQMSEVYIIGAQPLCSQLAGLSQGQKKLCHLYQDHMQYIGEGAKTGIKECQYQFRHRRWNCSTVDNTSVFGRVMQIGSRETAFTYAVSAAGVVNAMSRACREGELSTCGCSRAARPKDLPRDWLWGGCGDNIDYGYRFAKEFVDARERERIHAKGSYESARILMNLHNNEAGRRTVYNLADVACKCHGVSGSCSLKTCWLQLADFRKVGDALKEKYDSAAAMRLNSRGKLVQVNSRFNSPTTQDLVYIDPSPDYCVRNESTGSLGTQGRLCNKTSEGMDGCELMCCGRGYDQFKTVQTERCHCKFHWCCYVKCKKCTEIVDQFVCK [WNT5A] | -0.0436 | -0.0777 | -0.194 | 0.339
2 | MKLKLKNVFLAYFLVSIAGLLYALVQLGQPCDCLPPLRAAAEQLRQKDLRISQLQAELRRPPPAPAQPPEPEALPTIYVVTPTYARLVQKAELVRLSQTLSLVPRLHWLLVEDAEGPTPLVSGLLAASGLLFTHLVVLTPKAQRLREGEPGWVHPRGVEQRNKALDWLRGRGGAVGGEKDPPPPGTQGVVYFADDDNTYSRELFEEMRWTRGVSVWPVGLVGGLRFEGPQVQDGRVVGFHTAWEPSRPFPVDMAGFAVALPLLLDKPNAQFDSTAPRGHLESSLLSHLVDPKDLEPRAANCTRVLVWHTRTEKPKMKQEEQLQRQGRGSDPAIEV [B3GAT3] | 0.166 | -0.044 | -0.256 | -0.376
3 | MKLVNIWLLLLVVLLCGKKHLGDRLEKKSFEKAPCPGCSHLTLKVEFSSTVVEYEYIVAFNGYFTAKARNSFISSALKSSEVDNWRIIPRNNPSSDYPSDFEVIQIKEKQKAGLLTLEDHPNIKRVTPQRKVFRSLKYAESDPTVPCNETRWSQKWQSSRPLRRASLSLGSGFWHATGRHSSRRLLRAIPRQVAQTLQADVLWQMGYTGANVRVAVFDTGLSEKHPHFKNVKERTNWTNERTLDDGLGHGTFVAGVIASMRECQGFAPDAELHIFRVFTNNQVSYTSWFLDAFNYAILKKIDVLNLSIGGPDFMDHPFVDKVWELTANNVIMVSAIGNDGPLYGTLNNPADQMDVIGVGGIDFEDNIARFSSRGMTTWELPGGYGRMKPDIVTYGAGVRGSGVKGGCRALSGTSVASPVVAGAVTLLVSTVQKRELVNPASMKQALIASARRLPGVNMFEQGHGKLDLLRAYQILNSYKPQASLSPSYIDLTECPYMWPYCSQPIYYGGMPTVVNVTILNGMGVTGRIVDKPDWQPYLPQNGDNIEVAFSYSSVLWPWSGYLAISISVTKKAASWEGIAQGHVMITVASPAETESKNGAEQTSTVKLPIKVKIIPTPPRSKRVLWDQYHNLRYPPGYFPRDNLRMKNDPLDWNGDHIHTNFRDMYQHLRSMGYFVEVLGAPFTCFDASQYGTLLMVDSEEEYFPEEIAKLRRDVDNGLSLVIFSDWYNTSVMRKVKFYDENTRQWWMPDTGGANIPALNELLSVWNMGFSDGLYEGEFTLANHDMYYASGCSIAKFPEDGVVITQTFKDQGLEVLKQETAVVENVPILGLYQIPAEGGGRIVLYGDSNCLDDSHRQKDCFWLLDALLQYTSYGVTPPSLSHSGNRQRPPSGAGSVTPERMEGNHLHRYSKVLEAHLGDPKPRPLPACPRLSWAKPQPLNETAPSNLWKHQKLLSIDLDKVVLPNFRSNRPQVRPLSPGESGAWDIPGGIMPGRYNQEVGQTIPVFAFLGAMVVLAFFVVQINKAKSRPKRRKPRVKRPQLMQQVHPPKTPSV [MBTPS1] | 0.0339 | -0.198 | -1.77 | -1.37
4 | MKVVPEKNAVRILWGRERGARAMGAQRLLQELVEDKTRWMKWEGKRVELPDSPRSTFLLAFSPDRTLLASTHVNHNIYITEVKTGKCVHSLIGHRRTPWCVTFHPTISGLIASGCLDGEVRIWDLHGGSESWFTDSNNAIASLAFHPTAQLLLIATANEIHFWDWSRREPFAVVKTASEMERVRLVRFDPLGHYLLTAIVNPSNQQGDDEPEIPIDGTELSHYRQRALLQSQPVRRTPLLHNFLHMLSSRSSGIQVGEQSTVQDSATPSPPPPPPQPSTERPRTSAYIRLRQRVSYPTAECCQHLGILCLCSRCSGTRVPSLLPHQDSVPPASARATTPSFSFVQTEPFHPPEQASSTQQDQGLLNRPSAFSTVQSSTAGNTLRNLSLGPTRRSLGGPLSSHPSRYHREIAPGLTGSEWTRTVLSLNSRSEAESMPPPRTSASSVSLLSVLRQQEGGSQASVYTSATEGRGFPASGLATESDGGNGSSQNNSGSIRHELQCDLRRFFLEYDRLQELDQSLSGEAPQTQQAQEMLNNNIESERPGPSHQPTPHSSENNSNLSRGHLNRCRACHNLLTFNNDTLRWERTTPNYSSGEASSSWQVPSSFESVPSSGSQLPPLERTEGQTPSSSRLELSSSASPQEERTVGVAFNQETGHWERIYTQSSRSGTVSQEALHQDMPEESSEEDSLRRRLLESSLISLSRYDGAGSREHPIYPDPARLSPAAYYAQRMIQYLSRRDSIRQRSMRYQQNRLRSSTSSSSSDNQGPSVEGTDLEFEDFEDNGDRSRHRAPRNARMSAPSLGRFVPRRFLLPEYLPYAGIFHERGQPGLATHSSVNRVLAGAVIGDGQSAVASNIANTTYRLQWWDFTKFDLPEISNASVNVLVQNCKIYNDASCDISADGQLLAAFIPSSQRGFPDEGILAVYSLAPHNLGEMLYTKRFGPNAISVSLSPMGRYVMVGLASRRILLHPSTEHMVAQVFRLQQAHGGETSMRRVFNVLYPMPADQRRHVSINSARWLPEPGLGLAYGTNKGDLVICRPEALNSGVEYYWDQLNETVFTVHSNSRSSERPGTSRATWRTDRDMGLMNAIGLQPRNPATSVTSQGTQTLALQLQNAETQTEREVPEPGTAASGPGEGEGSEYGASGEDALSRIQRLMAEGGMTAVVQREQSTTMASMGGFGNNIIVSHRIHRSSQTGTEPGAAHTSSPQPSTSRGLLPEAGQLAERGLSPRTASWDQPGTPGREPTQPTLPSSSPVPIPVSLPSAEGPTLHCELTNNNHLLDGGSSRGDAAGPRGEPRNR [AMBRA1] | 0.0307 | -0.123 | 0.941 | 1.96
5 | MLGPCMLLLLLLLGLRLQLSLGIIPVEEENPDFWNREAAEALGAAKKLQPAQTAAKNLIIFLGDGMGVSTVTAARILKGQKKDKLGPEIPLAMDRFPYVALSKTYNVDKHVPDSGATATAYLCGVKGNFQTIGLSAAARFNQCNTTRGNEVISVMNRAKKAGKSVGVVTTTRVQHASPAGTYAHTVNRNWYSDADVPASARQEGCQDIATQLISNMDIDVILGGGRKYMFRMGTPDPEYPDDYSQGGTRLDGKNLVQEWLAKRQGARYVWNRTELMQASLDPSVTHLMGLFEPGDMKYEIHRDSTLDPSLMEMTEAALRLLSRNPRGFFLFVEGGRIDHGHHESRAYRALTETIMFDDAIERAGQLTSEEDTLSLVTADHSHVFSFGGYPLRGSSIFGLAPGKARDRKAYTVLLYGNGPGYVLKDGARPDVTESESGSPEYRQQSAVPLDEETHAGEDVAVFARGPQAHLVHGVQEQTFIAHVMAFAACLEPYTACDLAPPAGTTDAAHPGRSVVPALLPLLAGTLLLLETATAP [ALPP] | -0.46 | -0.115 | -3.03 | -2.91
6 | MLPFLLATLGTTALNNSNPKDYCYSARIRSTVLQGLPFGGVPTVLALDFMCFLALLFLFSILRKVAWDYGRLALVTDADRLRRQERDRVEQEYVASAMHGDSHDRYERLTSVSSSVDFDQRDNGFCSWLTAIFRIKDDEIRDKCGGDAVHYLSFQRHIIGLLVVVGVLSVGIVLPVNFSGDLLENNAYSFGRTTIANLKSGNNLLWLHTSFAFLYLLLTVYSMRRHTSKMRYKEDDLVKRTLFINGISKYAESEKIKKHFEEAYPNCTVLEARPCYNVARLMFLDAERKKAERGKLYFTNLQSKENVPTMINPKPCGHLCCCVVRGCEQVEAIEYYTKLEQKLKEDYKREKEKVNEKPLGMAFVTFHNETITAIILKDFNVCKCQGCTCRGEPRPSSCSESLHISNWTVSYAPDPQNIYWEHLSIRGFIWWLRCLVINVVLFILLFFLTTPAIIITTMDKFNVTKPVEYLNNPIITQFFPTLLLWCFSALLPTIVYYSAFFEAHWTRSGENRTTMHKCYTFLIFMVLLLPSLGLSSLDLFFRWLFDKKFLAEAAIRFECVFLPDNGAFFVNYVIASAFIGNAMDLLRIPGLLMYMIRLCLARSAAERRNVKRHQAYEFQFGAAYAWMMCVFTVVMTYSITCPIIVPFGLMYMLLKHLVDRYNLYYAYLPAKLDKKIHSGAVNQVVAAPILCLFWLLFFSTMRTGFLAPTSMFTFVVLVITIVICLCHVCFGHFKYLSAHNYKIEHTETDTVDPRSNGRPPTAAAVPKSAKYIAQVLQDSEVDGDGDGAPGSSGDEPPSSSSQDEELLMPPDALTDTDFQSCEDSLIENEIHQ [TMEM63B] | -0.0696 | -0.109 | -2.78 | -2.41
